For assay [1], the target named is human tonsillar B cells (CD20+ / CD19+, surface Ig). Kind of assay: flow cytometry, dual staining with biotinylated bacterial antigen.
For assay [2] the target is unchanged. Description: flow cytometry, biotinylated mod-SpA on tonsillar B cells; the pair that the inhibitors of Table 5 block. For orientation: Flow cytometry measures light scatter and fluorescence of single cells or particles in a stream.

Consider Protein G (from UniProt P19909), for which the Protein G Binding (share of CD20 tonsillar cells) in assay [1] was 9%.

For “SpA modified by hyperiodination to destroy IgG Fc binding activity (mod-SpA) (from UniProt P38507)”, the Binding (proportion of the total B cells bound by mod-SpA) in assay [2] stood at 15.

Turning to “staphylococcal protein A (SpA), purified recombinant form (from UniProt P38507)”, in assay [1], the SpA Binding (share of CD20 tonsillar cells) worked out at 29%.

The record behind these values is patent US5891438.
